The results in this text go back to paper PMC12724371 (2025).

Broadly, the Kd is the constant that tells how readily two partners part at equilibrium. A high value points to lower affinity.

The experiment addresses T1, OC43 spike S2 subunit extracellular domain with T4 foldon (HCoV-OC43).
T1 chain: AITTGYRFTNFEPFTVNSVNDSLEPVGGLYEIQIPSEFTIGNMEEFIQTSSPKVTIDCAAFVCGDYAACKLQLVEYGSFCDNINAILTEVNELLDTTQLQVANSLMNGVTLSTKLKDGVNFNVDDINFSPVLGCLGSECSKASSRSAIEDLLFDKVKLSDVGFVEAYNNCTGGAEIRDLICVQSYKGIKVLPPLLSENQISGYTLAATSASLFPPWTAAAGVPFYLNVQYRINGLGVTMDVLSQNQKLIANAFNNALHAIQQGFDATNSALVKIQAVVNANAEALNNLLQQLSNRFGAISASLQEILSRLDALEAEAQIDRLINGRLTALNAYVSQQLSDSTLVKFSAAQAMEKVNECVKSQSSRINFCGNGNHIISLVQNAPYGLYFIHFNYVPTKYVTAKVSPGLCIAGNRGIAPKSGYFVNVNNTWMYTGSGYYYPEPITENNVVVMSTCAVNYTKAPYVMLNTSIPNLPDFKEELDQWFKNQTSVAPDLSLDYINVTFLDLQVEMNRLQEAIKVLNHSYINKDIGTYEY
Description: BLI. On the technique in general: In BLI a coated tip is dipped into the sample, and binding shifts an interference pattern.

B1: 1871 Fab (Fab, V domains shown)
VH: EVQLVESGGGLVKPGGSLRLSCVASGFSFSIYSMNWVRQAPGKGLEWVSYISSSSSYKYYADSVKGRFSVSRDNAKNSLYLQLNGLRAEDTAVYYCARDGYCPKGVCTYYGMDVWGQGTTVTVSA
VL: EIVMTQSPATLSVSPGERVTLSCRASQSVRSRLAWFQQKPGQAPRLLIYDASIRATGIPARFSGSGSGTEFTLIISSLQSEDFAVYYCQQYDNWPPAYTFGQGTKLEIK
Consider B1, for which the Kd is below 1 pM.
